These are literature values, as cited in paper PMC4454452.

pKd: −log10 of the molar value.

Data set [1] concerns the target Histone H3 peptide (H3K9me3) (Homo sapiens) (UniProt P68431).
Data set [2] concerns the target Histone H3 peptide (H3K9me0) (Homo sapiens) (UniProt P68431).

Chain of CHD4 PHD2 (Q14839 449-496): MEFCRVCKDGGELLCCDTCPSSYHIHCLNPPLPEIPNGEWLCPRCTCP

The term pKd denotes −log10 of the Kd, conventionally taken in molar units. Regarding CHD4 PHD2 (from UniProt Q14839), the pKd is 6.05 in data set [1] and 4.72 in data set [2].
